According to US20250051437A1 (University of California, published 2025):
Where no end group is shown, it is not given here.

Assays:
[1] = molecular target: T1, human cadherin-17 (CDH17), endogenously expressed on human cancer cell lines (LS513, SNU-C1, PaTu8988s, … (human, UniProt Q12864 23-832)); assay: KinExA, cell-based, SNUC1 cells
T1 construct: also called LS513 (Colon, CDH17+); HPAF2

[2] = molecular target: T2, recombinant CDH17 extracellular domain (ECD) with 6x His tag (human, UniProt Q12864 23-787); assay: ELISA on recombinant CDH17 ECD-6xHis
T2 construct: also called Recombinant CDH17 ECD-6xhis tag

[3] = molecular target: T1, human cadherin-17 (CDH17), endogenously …; assay: flow cytometry (iQue) on SNUC1 cells, 1 µg Ab
[4] = molecular target: T3, human CDH17-mGFP fusion protein overexpressed on HEK293T cells (clone G11) (human, UniProt Q12864 23-832); assay: KinExA, cell-based, HEK293T CDH17mGFP clone G11
T3 construct: also called HEK293T CDH17mGFP Clone G11; HEK293T Human CDH17mGFP G11; not shown: mGFP fluorescent protein fused to CDH17
Method: (§1) The cell-based antibody affinity (KD) of the anti-CDH17 antibodies was measured by KinExA 4000 (Sapidyne Instrument, Boise, Idaho). Briefly, HEK293T overexpressing CDH17-fluorescent protein fusion (i.e., human CDH17-mGFP, monkey CDH17-mGFP, mouse CDH17-mGFP or rat CDH17-mGFP) were detached with Versene and equilibrated with either 50 pM, 200 pM, 20 nM, or 50 nM antibody in 2% FBS/DMEM at 4° C. overnight. The cell concentration started at 5×10⁶ cells/mL or 1×10⁷ cells/mL and 2-fold serial dilutions were performed up to 10 points. The next day, the cells were centrifuged at 1500 rpm for 10 min and the supernatants were saved. […] In contrast, while the humanized anti-CDH17 antibody, 07-0653-h43, fails to bind mouse CDH17 protein, it binds rat CDH17 protein equally well as to human and monkey CDH17 protein such that its Kp is less than about 1 nM for human, monkey and rat CDH17 proteins with overlapping 95% confidence interval values.

[5] = molecular target: T1, human cadherin-17 (CDH17), endogenously …; assay: flow cytometry (iQue) on SNUC1 cells, 0.2 µg Ab
[6] = molecular target: T1, human cadherin-17 (CDH17), endogenously …; assay: flow cytometry on LS513 cells (CDH17+), 20 µg/ml
[7] = molecular target: T4, rat CDH17 fused to moxGFP, overexpressed on HEK293T cells (rat, UniProt P55281 22-827); assay: flow cytometry (BD C6) on HEK293T Rat CDH17 moxGFP cells
T4 construct: whole, on cells; also called HEK293T Rat CDH17mGFP mass pop; rat CDH17-moxGFP
T4 sequence (P55281 22-827): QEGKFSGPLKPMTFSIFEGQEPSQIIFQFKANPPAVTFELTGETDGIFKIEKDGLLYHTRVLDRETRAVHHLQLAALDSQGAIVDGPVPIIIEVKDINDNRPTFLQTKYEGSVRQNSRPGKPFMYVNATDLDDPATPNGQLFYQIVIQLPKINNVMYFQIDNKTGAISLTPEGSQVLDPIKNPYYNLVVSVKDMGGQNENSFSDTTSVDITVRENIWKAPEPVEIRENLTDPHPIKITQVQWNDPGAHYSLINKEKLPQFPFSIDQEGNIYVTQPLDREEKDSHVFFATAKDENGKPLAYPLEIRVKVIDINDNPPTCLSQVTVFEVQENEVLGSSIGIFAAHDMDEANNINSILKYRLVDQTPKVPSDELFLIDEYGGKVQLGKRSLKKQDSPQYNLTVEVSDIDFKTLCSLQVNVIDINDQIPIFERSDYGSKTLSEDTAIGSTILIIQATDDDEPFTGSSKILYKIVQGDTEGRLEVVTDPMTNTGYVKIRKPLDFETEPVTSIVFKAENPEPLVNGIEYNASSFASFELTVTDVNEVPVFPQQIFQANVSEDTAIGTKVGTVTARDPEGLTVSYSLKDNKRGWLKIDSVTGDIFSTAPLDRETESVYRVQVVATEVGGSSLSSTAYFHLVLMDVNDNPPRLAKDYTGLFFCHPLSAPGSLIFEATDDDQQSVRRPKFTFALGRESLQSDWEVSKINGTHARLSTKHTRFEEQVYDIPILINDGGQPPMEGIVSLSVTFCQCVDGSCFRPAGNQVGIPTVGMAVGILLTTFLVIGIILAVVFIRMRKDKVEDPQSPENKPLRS
Method: To determine relative antigen binding strengths of the humanized antibodies, FACS assays were carried out as essentially described in Example 1. […] Using a BD Biosciences Accuri™ C6 Flow Cytometer (San Jose, CA), antibody binding based on Alexa Fluor® 647 fluorescence was measured in the FL4-H channel and fusion protein overexpression based on GFP fluorescence was measured in the FL1-H channel.

[8] = molecular target: T3, human CDH17-mGFP fusion protein …; assay: KinExA, cell-based, HEK293T overexpressing human CDH17-mGFP (FIG. 16)
Method: as §1

[9] = molecular target: T5, biotinylated 15-mer peptide 18 of the CDH17 ECD peptide scan (human, also: biotin label, position not given here); assay: titration ELISA on biotinylated peptide captured on streptavidin plates
T5 peptide: THNLQVAALDANGII
Method: (§2) For the ELISA, 1 μl of each biotinylated peptide plus 99 μl of peptide coating buffer (40% DMSO and 0.05% Tween20 in PBS) was added to a streptavidin-coated microtiter plate well. The plate was incubated overnight at 4° C. without shaking. The plate was then washed 4 times with 300 μl washing buffer (PBS with 0.05% Tween20). 200 μl blocking buffer (PBS with 400 μM biotin and 20% sucrose) was added to each well and the plate incubated for 30 min at room temperature without shaking. After 3 times washing with washing buffer, 300 μl of SuperBlock T20 (TBS) Blocking Buffer (Thermo Scientific, #37536) was applied per well and incubated at room temperature for 1 hour. […]

[10] = molecular target: T6, biotinylated 15-mer peptide 19 of the CDH17 ECD peptide scan (human, also: biotin label, position not given here); assay: as above
T6 peptide: QVAALDANGIIVEGP
Method: as §2

[11] = molecular target: T7, biotinylated 15-mer peptide 20 of the CDH17 ECD peptide scan (human, also: biotin label, position not given here); assay: as above
T7 peptide: LDANGIIVEGPVPIT
Method: as §2

[12] = molecular target: T3, human CDH17-mGFP fusion protein …; assay: KinExA, cell-based, HEK293T human CDH17mGFP G11 (same value as r12)
Method: as §1

[13] = molecular target: T3, human CDH17-mGFP fusion protein …; assay: flow cytometry (iQue) on HEK293T CDH17 mGFP clone G11 (human), 1 µg Ab
[14] = molecular target: T3, human CDH17-mGFP fusion protein …; assay: flow cytometry (iQue) on HEK293T CDH17 mGFP clone G11 (human), 0.2 µg Ab

- Kd [1]: 0.157 nM
- EC50 [2]: 1.22 nM
- Antibody Binding Activity by Flow iQue [3]: 76100
- Kd [4]: 0.152 nM
- Antibody Binding Activity by Flow iQue [5]: 163000
- Antibody Binding Activity by Flow Cytometry [6]: 74700
- binding result [7]: no binding (tested: 1 µg)
- Kd [8]: < 1 nM
- binding result [9]: binds
- binding result [10]: binds
- binding result [11]: binds
- Kd [12]: 0.152 nM
- Antibody Binding Activity by Flow iQue [13]: 172000
- Antibody Binding Activity by Flow iQue [14]: 57600
B1: humanized anti-CDH17 antibody 07-0663-h7 (antibody, human IgG1, kappa, V domains shown)
VH: QVQLVQSGAEVKKPGSSVKISCKVSGYTFTDHTIHWMRQAPGQGLEWIGYIFPRDDIVVYAQKFQGRATLTADKSTSTAYMELSSLRSEDTAVYYCARPPYYYSRNFYFDYWGQGTTLTVSS
VL: DIQMTQSPSSLSASVGDRVTITCRVSSIISSSKLHWYQQKPGKAPKPLIYGTSTLASGVPSRFSGSGSGTDYTLTISSLQPEDFATYYCQQWSNYPFTFGQGTKLEIKR
notes: Human IgG1 / kappa
